Marks after values point to notes of the source that are not given here.
Tests used:
Assay in all cases: Kinetic parameters for hydrolysis of internally quenched fluorogenic peptides by secPHEX
Type in all cases: biochemical, human
[1] = substrate: Nc1ccccc1C(=O)NCC(=O)N[C@@H](Cc1ccccc1)C(=O)N[C@@H](CO)C(=O)N[C@@H](CCC(=O)O)C(=O)N[C@@H](Cc1ccc(O)cc1)C(=O)N[C@@H](CCCCNc1ccc([N+](=O)[O-])cc1[N+](=O)[O-])C(=O)O; conditions: other: 37° C., 10 mM Bis-Tris buffer pH 5.5, 150 mM NaCl, [S]<<Km
Description: (§1) The human recombinant secPHEX was obtained following the procedure previously described (17, WO 00/50580). Purified secPHEX concentration was determined using the Bradford method (DC protein assay kit; Bio-Rad, Mississauga, ON, Canada). Membrane-bound recombinant human PHEX was expressed in LLC-PK1 cells (17, (WO 00/50580)) and membranes were prepared essentially as described by Guo et al. (34). Briefly, transfected cells resuspended in lysis buffer (150 mM NaCl, 20 mM Tris.HCl, pH 7.6) were disrupted by sonication. Cell debris were removed by centrifugation at 300 g for 15 min at 4 °C. Membranes were collected by centrifugation at 30,000 g for 50 min and solubilized for 2h with 1% n-dodecyl-β-D-maltoside in lysis buffer. Insoluble material was pelleted by centrifugation at 10,000 g for 15 min and protein concentrations of the supernatant determined using the Bradford method described above. PHEX amounts were evaluated by immunoblotting as described previously (17). NEP expression and purification were performed as described previously (36).
(§2) The hydrolysis of the IQFPs, at 37° C., in 10 mM Bit-Tris buffer pH 5.5 (0.35 to 1.0 ml final volume) containing 150 mM NaCl, was continuously followed measuring the fluorescence at γem=420 nm and γex=320 nm in a Hitachi F-2000™ spectrofluorometer. The cuvefte containing the buffer and the substrate was placed in a thermostatically controlled cell compartment for 5 min before the addition of the enzyme and the increase in fluorescence with time was continuously recorded for 5-10 min. The enzyme concentration for initial rate determination was chosen at a level intended to hydrolyze less than 5% of the substrate present. The slope was converted into micromoles of substrate hydrolyzed per min based on a calibration curve obtained from complete hydrolysis of each peptide. The inner-filter effect was corrected using an empirical equation as previously described (43). The kinetic parameters Km and kcat were calculated by the non-linear regression data analysis Grafit program (42). The kcat/Km values were calculated as the ratio of these two determined parameters. The apparent second order rate constant kcat/Km (*kIt/Km) was determined under pseudo first-order conditions, where [S]<<Km. These determinations were performed in two different substrate concentrations and the errors were less than 5% for any obtained value.
(§3) To determine the position of cleavage in peptides of the IQFPs combinatorial libraries, the products resulting from hydrolysis by secPHEX were submitted to N-terminal amino acid sequencing in a PPSQ-23protein sequencer (Shimadzu Tokyo, Japan). The scissile bonds in the IQFPs secPHEX substrates derived from PTHrP107-139, FGF-23and MEPE were determined by amino acid sequencing and by MALDI-TOF™ mass spectrometry (TofSpec-E™, Micromass, Manchester, U.K.) after isolation of the fragments resulting from the hydrolysis by secPHEX by analytical HPLC.
(§4) The assays were performed at 37° C., in 10 mM Bis-Tris buffer pH 5.5, containing 150 mM NaCl. Measurements were made as described under the heading “Experimental Procedures” above. Cleavage sites are indicated as arrows (↓). The standard deviations of the kinetic constants were less than 5%.
(§5) The assays were performed at 37° C., in 10 mM Bis-Tris buffer pH 5.5, containing 150 mM NaCl. Measurements were made as described under the heading “Experimental Procedures” above. Cleavage sites are indicated by arrows (↓). The standard deviations of the kinetic constants were less than 5%.
(§6) The assays were. performed at 37° C., in 10 mM Bis-Tris buffer pH 5.5, containing 150 mM NaCl. Measurements were made as described under the heading “Experimental Procedures” above. Cleavage sites are indicated by arrows (↓). The standard deviations of the kinetic constants were less than 5%.
(§7) The assays were performed at 37° C., in 10 mM Bis-Tris buffer pH 5.5, containing 150 mM NaCl. Measurements were made as described under “Experimental Procedures”. […]

[2] = substrate: NC(=O)[C@H](CCCCNc1ccc([N+](=O)[O-])cc1[N+](=O)[O-])NC(=O)[C@H](Cc1ccc(O)cc1)NC(=O)[C@H](CC(=O)O)NC(=O)[C@H](CO)NC(=O)[C@H](Cc1ccccc1)NC(=O)CNC(=O)c1ccccc1N; conditions: other: 37° C., 10 mM Bis-Tris buffer pH 5.5, 150 mM NaCl
Description: as §1, §2, §3, §4, §5, §6, §7

[3] = substrate: C[C@H](NC(=O)[C@H](C)NC(=O)[C@H](CC(=O)O)NC(=O)[C@H](CO)NC(=O)[C@H](CO)NC(=O)CNC(=O)c1ccccc1N)C(=O)N[C@@H](CCC(=O)O)C(=O)N[C@@H](CCC(N)=O)C(=O)NCCNc1ccc([N+](=O)[O-])cc1[N+](=O)[O-]; conditions: other: 37° C., 10 mM Bis-Tris buffer pH 5.5, 150 mM NaCl
Description: as §1, §2, §3, §4, §5, §6, §7

[4] = substrate: C[C@H](NC(=O)[C@H](CO)NC(=O)[C@H](CCC(N)=O)NC(=O)[C@@H](NC(=O)[C@H](Cc1c[nH]cn1)NC(=O)[C@H](CCCNC(=N)N)NC(=O)[C@H](CCCNC(=N)N)NC(=O)c1ccccc1N)[C@@H](C)O)C(=O)N[C@@H](CCC(=O)O)C(=O)N[C@@H](CC(=O)O)C(=O)N[C@@H](CC(=O)O)C(=O)N[C@@H](CO)C(=O)N[C@@H](CCC(=O)O)C(=O)N[C@@H](CCCNC(=N)N)C(=O)N[C@@H](CCC(N)=O)C(=O)NCCNc1ccc([N+](=O)[O-])cc1[N+](=O)[O-]; conditions: other: 37° C., 10 mM Bis-Tris buffer pH 5.5, 150 mM NaCl
Description: as §1, §2, §3, §4, §5, §6, §7

B1: human recombinant secPHEX (Homo sapiens) (protein)
chain: SLQAKQEYCLKPECIEAAAAILSKVNLSVDPCDNFFRFACDGWISNNPIPEDMPSYGVYPWLRHNVDLKLKELLEKSISRRRDTEAIQKAKILYSSCMNEKAIEKADAKPLLHILRHSPFRWPVLESNIGPEGVWSERKFSLLQTLATFRGQYSNSVFIRLYVSPDDKASNEHILKLDQATLSLAVREDYLDNSTEAKSYRDALYKFMVDTAVLLGANSSRAEHDMKSVLRLEIKIAEIMIPHENRTSEAMYNKMNISELSAMIPQFDWLGYIKKVIDTRLYPHLKDISPSENVVVRVPQYFKDLFRILGSERKKTIANYLVWRMVYSRIPNLSRRFQYRWLEFSRVIQGTTTLLPQWDKCVNFIESALPYVVGKMFVDVYFQEDKKEMMEELVEGVRWAFIDMLEKENEWMDAGTKRKAKEKARAVLAKVGYPEFIMNDTHVNEDLKAIKFSEADYFGNVLQTRKYLAQSDFFWLRKAVPKTEWFTNPTTVNAFYSASTNQIRFPAGELQKPFFWGTEYPRSLSYGAIGVIVGHEFTHGFDNNGRKYDKNGNLDPWWSTESEEKFKEKTKCMINQYSNYYWKKAGLNVKGKRTLGENIADNGGLREAFRAYRKWINDRRQGLEEPLLPGITFTNNQLFFLSYAHVRCNSYRPEAAREQVQIGAHSPPQFRVNGAISNFEEFQKAFNCPPNSTMNRGMDSCRLW
notes: pure soluble form of PHEX (secPHEX); made in house
kcat/Km [1]: 9.0* mM^−1 s^−1
Km [2]: 53.2 µM
kcat [2]: 1.3 s⁻¹
kcat/Km [2]: 24400 M⁻¹ s⁻¹
Km [3]: 2.4 µM
kcat [3]: 0.3 s⁻¹
kcat/Km [3]: 125000 M⁻¹ s⁻¹
Km [4]: 1.7 µM
kcat [4]: 0.15 s⁻¹
kcat/Km [4]: 88200 M⁻¹ s⁻¹
